Source: paper PMC4232355

B1: N-opened RGD (peptide)
peptide: SRGDASYTSDESSDDDNDSDSH
B2: C-opened RGD (peptide)
peptide: SDESDTNSESANESGSRGDA

Target: recombinant integrin αvβ3 (UniProt P06756)
Assay: ELISA; integrin competitive binding assay: wells coated with 0.05 µg/well recombinant integrin αvβ3; 5 nM biotinylated-GRGDS with or without various peptides (20 nM) or serially diluted cyclic-(GRGDSP), 3 hr at room temperature, binding buffer with 1 mM MnCl2; bound biotinylated-GRGDS detected with streptavidin-HRP polymer

Binder | inhibitory activity of 20 nM peptide, as the equal concentration of cyclic-(GRGDSP) [nM] | inhibitory activity of 20 nM peptide, percent of that of 20 nM cyclic-(GRGDSP) [%]
B1 | 3.3 | 16.5
B2 | 5.27 | 26.5
